Earlier results in US11963996B2, “Method of treating knee pain” (ORTHOTROPHIX, Inc., priority 2018, dated 2024).

Assays:
OA patients = settings: human, in vivo; cited from earlier work
[1] = system: human osteoblastic mesenchymal stem cells; settings: cited from earlier work
subjects with knee OA = settings: vs placebo, cited from earlier work

N#Cc1c(N(CC(=O)[O-])CC(=O)[O-])sc(C(=O)[O-])c1CC(=O)[O-].[Sr+2].[Sr+2] [strontium ranelate]
Risk of myocardial infarction (OA patients): increase the risk of myocardial infarction

rat orthologue: TPX-100 orthologue PDLLVRGDNDVPPFSGDGQHFMH (Rat/Mouse)
Tritium-thymidine incorporation [1]: promote tritium-thymidine incorporation

B1: FGF-18: Fibroblast Growth Factor-18, a.k.a. Sprifermin, candidate DMOAD, a putative chondrocyte growth factor (protein, UniProt O76093 28-207, looked up)
Fibroblast growth factor 18: EENVDFRIHVENQTRARDDVSRKQLRLYQLYSRTSGKHIQVLGRRISARGEDGDKYAQLLVETDTFGSQVRIKGKETEFYLCMNRKGKLVGKPDGTSKECVFIEKVLENNYTALMSAKYSGWYVGFTKKGRPRKGPKTRENQQDVHFMKRYPKGQPELQKPFKYTTVTKRSRRIRPTHPA
modifications: sprifermin
notes: Fibroblast Growth Factor-18, a.k.a; Sprifermin, candidate DMOAD, a putative chondrocyte growth factor
Clinical benefit (WOMAC) (subjects with knee OA; 24 months): no difference in clinical benefit was detected in any treatment group when compared with placebo | Clinical benefit (subjects with knee OA; 36 months): failed to demonstrate clinical benefit compared with the placebo-treated group | Tibiofemoral cartilage thickness by MRI (subjects with knee OA; three once-weekly IA injections, repeated at months 6, 12, 18, 24 months): dose-dependent increases in tibiofemoral cartilage thickness compared with the placebo group
